From publication PMC9477737, “Structural insights into auxin recognition and efflux by Arabidopsis PIN1” (Nature, 2022) come the findings set out here.

Data set [1] deals with T1, Arabidopsis thaliana PIN1 (PIN-FORMED 1 auxin transporter), full length, N-terminal Flag tag (A. thaliana, UniProt Q9C6B8).
T1 construct: PIN1, Arabidopsis thaliana, UniProt Q9C6B8, full length; most of the hydrophilic loop is not visible in the cryo-EM map; Forms a homodimer in the cryo-EM structures; A monomeric class was also seen in the apo sample; also called AtPIN1; WT PIN1
Put plainly: cryo-EM structure; purified PIN1 and sybody-21 mixed at a molar ratio of ~1:3, gel filtration in 25 mM HEPES pH 7.4, 150 mM NaCl, 0.02% GDN; apo, IAA-bound (10 mM IAA) and NPA-bound (100 uM NPA) samples. Conditions: both partners purified.

Data set [2] deals with the molecule itself. Described as above.

B1: Sybody-21 (synthetic nanobody selected against PIN1) (VHH)
VHH: QVQLVESGGGLVQAGGSLRLSCAASGFPVNISWMEWYRQVPGKEREWVAAIQSTGSYTWYADSVKGRFTISRDNAKNTVYLQMNSLKPEDTAVYYCRVKVGAYYRGQGTQVTVSA
notes: Selected by ribosome display and phage display from the Concave, Loop or Convex sybody libraries; The BLI methods speak of a His-tagged sybody; How the purified Sybody-21 was made is not described; also called the sybody
As for B1, in data set [1], the binding result is reported as “binds”.

B2: Arabidopsis thaliana PIN1 (PIN-FORMED 1 auxin transporter), full length, N-terminal Flag tag (natural protein, A. thaliana, UniProt Q9C6B8 1-622, looked up)
chain: MITAADFYHVMTAMVPLYVAMILAYGSVKWWKIFTPDQCSGINRFVALFAVPLLSFHFIAANNPYAMNLRFLAADSLQKVIVLSLLFLWCKLSRNGSLDWTITLFSLSTLPNTLVMGIPLLKGMYGNFSGDLMVQIVVLQCIIWYTLMLFLFEYRGAKLLISEQFPDTAGSIVSIHVDSDIMSLDGRQPLETEAEIKEDGKLHVTVRRSNASRSDIYSRRSQGLSATPRPSNLTNAEIYSLQSSRNPTPRGSSFNHTDFYSMMASGGGRNSNFGPGEAVFGSKGPTPRPSNYEEDGGPAKPTAAGTAAGAGRFHYQSGGSGGGGGAHYPAPNPGMFSPNTGGGGGTAAKGNAPVVGGKRQDGNGRDLHMFVWSSSASPVSDVFGGGGGNHHADYSTATNDHQKDVKISVPQGNSNDNQYVEREEFSFGNKDDDSKVLATDGGNNISNKTTQAKVMPPTSVMTRLILIMVWRKLIRNPNSYSSLFGITWSLISFKWNIEMPALIAKSISILSDAGLGMAMFSLGLFMALNPRIIACGNRRAAFAAAMRFVVGPAVMLVASYAVGLRGVLLHVAIIQAALPQGIVPFVFAKEYNVHPDILSTAVIFGMLIALPITLLYYILLGL
notes: PIN1, Arabidopsis thaliana, UniProt Q9C6B8, full length; most of the hydrophilic loop is not visible in the cryo-EM map; Forms a homodimer in the cryo-EM structures; A monomeric class was also seen in the apo sample; also called AtPIN1; WT PIN1
With B2, in data set [2], the “stoichiometry N” value turned out to be 2.

As a reminder, the stoichiometry N is the number of molecules, sites or subunits per partner or assembly.
